Measurements taken from patent US9987241B2, “Enzyme conjugate and prodrug cancer therapy” (The Board of Regents of the University of Oklahoma, priority 2014, dated 2018).

How the values were obtained:
4T1 tumors = test: Combination therapy on 4T1 tumors implanted orthotopically: tumor volume and survival; assay type: in vivo; settings: BALB/cJ mice with orthotopic 4T1 tumors; protocols of FIGS. 8 and 9; treatment day 10 to 30
Description: Selenomethionine (5 mg/kg IP) was administered 10 h post fusion protein administration. Rapamycin (5 mg/kg IP) and cyclophosphamide (10 mg/kg IP) were administered daily. Treatment began on day 10 and continued until day 30 as indicated by the arrow. Statistical significance vs. untreated is indicated by * (p<0.001).

4T1 lung metastasis = test: Lung metastasis nodules in 4T1-TdTomato model; assay type: in vivo, BALB/c mouse; settings: after 3 weeks of treatment
From the text: A Leica stereomicroscope with an automated ImageJ macro was used to quantify fluorescent nodules in the lung. […] Median nodule size on the log scale is marked. Total nodules per group (n=3 mice) is summed and shown.

[1] = test system: CD4+ CD25+ FoxP3+ regulatory T cell; settings: comparing mCGL-AV & Sel groups with and without Cyc, after 3 weeks of treatment
From the text: CD4+ CD25+ FoxP3+ regulatory T cell levels were quantified with flow cytometry and are presented as a percentage of spleen lymphocytes in BALB/c mice with 4T1 grafts after 3 weeks of treatment or healthy BALB/c mice with no tumor. Data is mean±SE (n=3 mice).

[2] = test system: hypoxia-inducible factor-1 alpha (HIF-1-α); test: Immunohistochemistry staining of HIF-1-α in tumor sections; assay type: in vivo, BALB/c mice; settings: after 3 weeks of treatment
From the text: Immunohistochemistry staining of HIF-1-α with DAB development was quantified from whole section images of mice sacrificed after 3 weeks of treatment. Data is presented as mean±SE (n=3 mice). Statistical significance between groups is indicated by +(p<0.01) or * (p<0.001).

[3] = test system: human MDA-MB-231 breast tumors; test: Dissociation constants of fusion proteins on MDA-MB-231 cells grown in vitro; assay type: binding; settings: for Kd: MDA-MB-231 cells in vitro, ± SE (n = 3), read-out: Dissociation Constant (Kd) MDA-MB-231
[4] = test system: human HAAE-1 endothelial cells; test: Dissociation constants of fusion proteins on HAAE-1 cells grown in vitro; assay type: binding; settings: for Kd: HAAE-1 cells in vitro, ± SE (n = 3), read-out: Dissociation Constant (Kd) HAAE-1
[5] = L-methioninase enzyme activity of fusion proteins; assay type: biochemical; settings: for L-methioninase enzyme activity compared with Met-AV: versus Met-AV fusion protein
mouse 4T1 breast tumors = test: AV- and AI-targeted mCGL enzyme prodrug therapy on orthotopic 4T1 tumors; assay type: in vivo; settings: BALB/c mice; fusion protein 10 mg/kg IP daily with selenomethionine 5 mg/kg IP
Description: FIG. 6 is a comparison of efficacy of AV- and AI-targeted mCGL enzyme prodrug therapy with selenomethionine on 4T1 tumors implanted orthotopically in BALB/c mice. mCGL-AV and mCGL-AI were administered daily (10 mg/kg IP). Selenomethionine (5 mg/kg IP) was administered 10 h post fusion protein administration. Treatment began on day 11 and continued until day 18 as indicated by the arrow. Statistical significance vs. untreated is indicated by * (p<0.001). No significant difference was observed between treatment groups. […] Data is presented as mean volume±SE (n=6).

[6] = Fusion protein specific IgG + IgM titers after daily IP administration; assay type: in vivo; settings: BALB/c mice
[7] = In vivo mCGL-AV plasma clearance (ELISA on serum); parameters: species or system mice; settings: 10 mg/kg intraperitoneal
Description: An ELISA assay for mCGL-AV was performed on serum samples at intervals following intraperitoneal administration of mCGL-AV at 10 mg/kg. Data is presented as mean±SE (n=3).
Clearance of the mCGL-AV protein from the circulation of BALB/cJ mice occurred with pharmacokinetics similar to the other enzyme prodrug systems in SCID mice.

Molecule | Median Survival (4T1 tumors) [days] | Kd [3] [nM] | Binding to MDA-MB-231 tumor cells in vitro [3] | Kd [4] [nM] | Binding to HAAE-1 human endothelial cells in vitro [4] | L-methioninase enzyme activity [5] [U/mg] | L-methioninase enzyme activity compared with Met-AV [5] | Negative effects of treatment (mouse 4T1 breast tumors) | also measured
O=P1(N(CCCl)CCCl)NCCCO1 (stereo not shown) [Cyc, cyclophosphamide] | 23 | – | – | – | – | – | – | – | Lung metastatic nodules, number and size (4T1 lung metastasis): reduced numbers of metastases; Regulatory T cell levels in spleen [1]: mild reduction in regulatory T cell levels; HIF-1-α expression in tumor sections [2]: drastic reduction of HIF-1-α expression
C[Se]CC[C@H](N)C(=O)O [Sel, selenomethionine] | 18 | – | – | – | – | – | – | – | –
CO[C@H]1C[C@@H]2CC[C@@H](C)[C@@](O)(O2)C(=O)C(=O)N2CCCC[C@H]2C(=O)O[C@H]([C@H](C)C[C@@H]2CC[C@@H](O)[C@H](OC)C2)CC(=O)[C@H](C)/C=C(\C)[C@@H](O)[C@@H](OC)C(=O)[C@H](C)C[C@H](C)/C=C/C=C/C=C/1C [Rap, rapamycin] | 14 | – | – | – | – | – | – | – | –
mCGL-AI: fusion protein of mouse cystathione-γ-lyase mutant with three mutations (SEQ ID NO:3) and annexin I; post-cleavage SEQ ID NO:11 (protein, pre-cleavage amino acid sequence of the mCGL-AI fusion protein) MHHHHHHSSGLVPRGSGMKETAAAKFERQHMDSPDLGTDDDDKMLEVLFQGPMQKDASLSGFLPSFQHFATQAIHVGQEPEQWNSRAVVLPISLATTFKQDFPGQSSGFNYSRSGNPTRNCLEKAVAALDGAKHSLAFASGLAATITITHLLKAGDEIICMDEVYGGTNLYFRRVASEFGLKISFVDCSKTKLLEAAITPQTKLVWIETPTNPTLKLADIGACAQIVHKRGDIILVVDNTFMSAYFQRPLALGADICMCSATKYMNGHSDVVMGLVSVNSDDLNSRLRFLQNSLGAVPSPFDCYLCCRGLKTLQVRMEKHFKNGMAVARFLETNPRVEKVVYPGLPSHPQHELAKRQCSGCPGMVSFYIKGALQHAKAFLKNLKLFTLAVSLGGYESLAELPAIMTHASVPEKDRATLGINDTLIRLSVGLEDEQDLLEDLDRALKAAHPSGGGGSGGGGMAMVSEFLKQARFLENQEQEYVQAVKSYKGGPGSAVSPYPSFNVSSDVAALHKAIMVKGVDEATIIDILTKRTNAQRQQIKAAYLQENGKPLDEVLRKALTGHLEEVVLAMLKTPAQFDADELRGAMKGLGTDEDTLIEILTTRSNEQIREINRVYREELKRDLAKDITSDTSGDFRKALLALAKGDRCQDLSVNQDLADTDARALYEAGERRKGTDVNVFTTILTSRSFPHLRRVFQNYGKYSQHDMNKALDLELKGDIEKCLTTIVKCATSTPAFFAEKLYEAMKGAGTRHKALIRIMVSRSEIDMNEIKVFYQKKYGISLCQAILDETKGDYEKILVALCGGN | – | 0.68 | bound strongly | 2.3 | bound strongly | 1.0 | substantially equivalent | No negative effects were observed | –
mCGL-AV: fusion protein of mouse cystathione-γ-lyase mutant with three mutations (SEQ ID NO:3) and annexin V; post-cleavage SEQ ID NO:10 (protein, pre-cleavage amino acid sequence of the mCGL-AV fusion protein) MHHHHHHSSGLVPRGSGMKETAAAKFERQHMDSPDLGTDDDDKMLEVLFQGPMQKDASLSGFLPSFQHFATQAIHVGQEPEQWNSRAVVLPISLATTFKQDFPGQSSGFNYSRSGNPTRNCLEKAVAALDGAKHSLAFASGLAATITITHLLKAGDEIICMDEVYGGTNLYFRRVASEFGLKISFVDCSKTKLLEAAITPQTKLVWIETPTNPTLKLADIGACAQIVHKRGDIILVVDNTFMSAYFQRPLALGADICMCSATKYMNGHSDVVMGLVSVNSDDLNSRLRFLQNSLGAVPSPFDCYLCCRGLKTLQVRMEKHFKNGMAVARFLETNPRVEKVVYPGLPSHPQHELAKRQCSGCPGMVSFYIKGALQHAKAFLKNLKLFTLAVSLGGYESLAELPAIMTHASVPEKDRATLGINDTLIRLSVGLEDEQDLLEDLDRALKAAHPSGGGGSGGGGMATRGTVTDFPGFDGRADAEVLRKAMKGLGTDEDSILNLLTSRSNAQRQEIAQEFKTLFGRDLVDDLKSELTGKFEKLIVAMMKPSRLYDAYELKHALKGAGTDEKVLTEIIASRTPEELSAIKQVYEEEYGSNLEDDVVGDTSGYYQRMLVVLLQANRDPDTAIDDAQVELDAQALFQAGELKWGTDEEKFITIFGTRSVSHLRRVFDKYMTISGFQIEETIDRETSGNLEQLLLAVVKSIRSIPAYLAETLYYAMKGAGTDDHTLIRVVVSRSEIDLFNIRKEFRKNFATSLYSMIKGDTSGDYKKALLLLCGGEDD | 18 | 2.5 | bound strongly | 0.11 | bound strongly | 1.3 | substantially equivalent | No negative effects were observed | Fusion protein specific IgG + IgM titer, Day 0 ([6]; daily 10 mg/kg IP, Day 0): Not detected; Fusion protein specific IgG + IgM titer, Day 7 ([6]; daily 10 mg/kg IP, Day 7): Not Detected; Fusion protein specific IgG + IgM titer, Day 14 ([6]; daily 10 mg/kg IP, Day 14): Not Detected; Fusion protein specific IgG + IgM titer, Day 21 ([6]; daily 10 mg/kg IP, Day 21): Not Detected; Immunogenicity: IgG+IgM antibody titers in the bloodstream ([6]; daily intraperitoneal administration, 21 day period): did not produce detectable IgG+IgM antibody titers; Time to complete clearance from the circulation ([7]; BALB/cJ mice): ≤ 10 h; Clearance from the circulation (time) ([7]; SCID mice, ELISA on serum): < 10 h
